This test has as its target 10-subunit yeast RNA polymerase II (yeast) (UniProt P16370). In words: 2.8 Å cocrystal structure; change in solvent-exposed surface of pol II residues, AREAIMOL, probe radius 1.4 Å.

The substance α-amanitin (peptide) showed a Δsurface area (Total) of -541 Å^2.
